From patent US20250243261A1 (CZ BIOHUB SF, published 2025)

Biological target: T1, full-length Ebola GP on pseudotyped lentivirus (Zaire ebolavirus, UniProt Q05320 33-676)
T1 sequence: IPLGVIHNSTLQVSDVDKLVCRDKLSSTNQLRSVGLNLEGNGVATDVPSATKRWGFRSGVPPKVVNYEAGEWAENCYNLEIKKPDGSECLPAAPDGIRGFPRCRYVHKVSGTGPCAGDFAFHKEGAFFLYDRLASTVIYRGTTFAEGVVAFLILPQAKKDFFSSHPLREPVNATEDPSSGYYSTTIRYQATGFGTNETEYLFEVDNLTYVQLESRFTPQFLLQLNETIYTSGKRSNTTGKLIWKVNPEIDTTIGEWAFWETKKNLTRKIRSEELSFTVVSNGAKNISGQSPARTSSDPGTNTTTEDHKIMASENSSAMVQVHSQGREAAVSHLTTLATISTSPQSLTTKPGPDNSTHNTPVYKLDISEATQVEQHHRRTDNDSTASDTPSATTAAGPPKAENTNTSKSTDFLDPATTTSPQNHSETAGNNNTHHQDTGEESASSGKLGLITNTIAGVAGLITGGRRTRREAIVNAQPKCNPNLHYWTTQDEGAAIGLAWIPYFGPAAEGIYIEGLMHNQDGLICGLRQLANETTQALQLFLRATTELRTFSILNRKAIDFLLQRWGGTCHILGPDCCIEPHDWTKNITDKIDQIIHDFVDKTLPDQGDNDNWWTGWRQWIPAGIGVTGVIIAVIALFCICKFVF
Assay: cell-based or functional assay

B1: mAb114 WT IgG (antibody, V domains shown)
VH: EVQLVESGGGLIQPGGSLRLSCAASGFALRMYDMHWVRQTIDKRLEWVSAVGPSGDTYYADSVKGRFAVSRENAKNSLSLQMNSLTAGDTAIYYCVRSDRGVAGLFDSWGQGILVTVSS
VL: DIQMTQSPSSLSASVGDRITITCRASQAFDNYVAWYQQRPGKVPKLLISAASALHAGVPSRFSGSGSGTHFTLTISSLQPEDVATYYCQNYNSAPLTFGGGTKVEIK
Ebola GP pseudotyped lentivirus IC50: 1.43 nM
